Source: patent EP4682166A1 (Guangzhou Enmai Biotechnology Co., Ltd, dated 2026)

T1: NMI-flag overexpressed protein (293T cells transfected with the hNMI-flag plasmid) (human) (UniProt Q13287)
T1 sequence (looked up): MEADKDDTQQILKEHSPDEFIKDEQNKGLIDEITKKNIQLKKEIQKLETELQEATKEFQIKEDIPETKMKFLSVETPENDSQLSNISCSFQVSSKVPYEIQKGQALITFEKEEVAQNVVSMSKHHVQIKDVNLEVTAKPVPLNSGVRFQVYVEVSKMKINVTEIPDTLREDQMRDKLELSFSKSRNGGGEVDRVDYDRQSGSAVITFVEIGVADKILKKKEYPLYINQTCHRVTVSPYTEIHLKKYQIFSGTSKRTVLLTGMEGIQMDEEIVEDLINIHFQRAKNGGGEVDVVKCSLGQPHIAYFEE

T2: natural NMI in joint fluid of an arthritic patient (human) (UniProt Q13287)
T2 sequence (looked up): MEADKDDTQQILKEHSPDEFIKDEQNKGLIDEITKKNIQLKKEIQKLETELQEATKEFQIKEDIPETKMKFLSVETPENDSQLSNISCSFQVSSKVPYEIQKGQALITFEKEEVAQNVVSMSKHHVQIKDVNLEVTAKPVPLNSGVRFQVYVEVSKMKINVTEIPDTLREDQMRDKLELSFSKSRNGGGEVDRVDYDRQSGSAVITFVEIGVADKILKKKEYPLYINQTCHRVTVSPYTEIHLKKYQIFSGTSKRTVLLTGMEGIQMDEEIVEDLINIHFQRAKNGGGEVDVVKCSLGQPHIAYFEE

T3: human NMI (N-myc Interacting protein) (human) (UniProt Q13287)
T3 sequence (looked up): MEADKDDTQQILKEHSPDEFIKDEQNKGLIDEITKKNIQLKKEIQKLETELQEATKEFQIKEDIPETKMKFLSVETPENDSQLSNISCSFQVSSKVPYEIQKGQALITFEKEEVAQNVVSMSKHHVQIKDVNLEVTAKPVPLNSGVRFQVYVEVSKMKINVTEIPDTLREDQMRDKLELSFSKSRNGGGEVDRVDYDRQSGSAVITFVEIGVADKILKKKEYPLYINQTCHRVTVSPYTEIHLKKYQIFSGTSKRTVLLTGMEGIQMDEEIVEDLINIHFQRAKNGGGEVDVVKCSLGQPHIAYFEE


Tests used:
[1] = target: T1, NMI-flag overexpressed protein (293T cells transfected with the hNMI-flag plasmid) (human); assay: sandwich ELISA; detection 94C4-1-biotin; cell lysates of NMI-flag 293T, replicate 1
[2] = target: T2, natural NMI in joint fluid of an arthritic patient (human); assay: sandwich ELISA; detection 94C4-1-biotin 0.5µg/mL; joint fluid diluted 1/2
[3] = target: T3, human NMI (N-myc Interacting protein) (human); assay: magnetic-bead chemiluminescent sandwich; capture 98G10 beads, detection acridinium-B-8 (1.0 mg B-8 labelled); hNMI 1000 pg/mL
[4] = target: T3, human NMI (N-myc Interacting protein) (human); assay: magnetic-bead chemiluminescent sandwich, kit of Example 8-1; capture 98G10 beads, detection acridinium-B-8; series 2, hNMI 7500 pg/mL
[5] = target: T3, human NMI (N-myc Interacting protein) (human); assay: magnetic-bead chemiluminescent sandwich, kit of Example 8-1; capture 98G10 beads, detection acridinium-B-8; series 3, hNMI 50 pg/mL
[6] = target: T3, human NMI (N-myc Interacting protein) (human); assay: magnetic-bead chemiluminescent sandwich, kit of Example 8-1; capture 98G10 beads, detection acridinium-B-8; series 3, hNMI 10000 pg/mL
[7] = target: T3, human NMI (N-myc Interacting protein) (human); assay: magnetic-bead chemiluminescent sandwich; capture 98G10 beads (1.0 mg 98G10), detection acridinium-B-8; hNMI 50 pg/ml
[8] = target: T3, human NMI (N-myc Interacting protein) (human); assay: magnetic-bead chemiluminescent sandwich, kit of Example 8-1; capture 98G10 beads, detection acridinium-B-8; series 1, hNMI 50 pg/mL
[9] = target: T3, human NMI (N-myc Interacting protein) (human); assay: magnetic-bead chemiluminescent sandwich; capture 98G10 beads, detection acridinium-B-8 (2.0 mg B-8 labelled); hNMI 50 pg/mL
[10] = target: T3, human NMI (N-myc Interacting protein) (human); assay: magnetic-bead chemiluminescent sandwich; capture 98G10 beads, detection acridinium-B-8 (2.0 mg B-8 labelled); hNMI 400 pg/mL

Binder	OD450 [1] [OD450]	OD450 [2] [OD450]	Signal value [3]	Signal value [4]	Signal value [5]	Signal value [6]	Signal value [7]	Signal value [8]	Signal value [9]	Signal value [10]
monoclonal antibody B-8 (antibody, V domains shown, Rabbit monoclonal antibody; also called B8-1) VH: QSLEESGGDLVKPGASLTLTCTASGFSFSSSYYMCWVRQAPGKGLEWIACIYAGSSGSTYYASWAKGRFTISKTSSTTVTLQMTSLTAADTATYFCAREYSYDDYGDFWGFNLWGPGTLVTVSS VL: ALVMTQTPSSVSAAVGGTVTINCQASQNIYTNLAWYQQKPGQPPKLLIYGASNLESGVPSRFKGSGSGTEYTLTISDLECDDAATYYCQSSLYSRIADRANAFGGGTEVVVK	3.03	0.128								
acridinium ester-labeled monoclonal antibody B-8 (antibody, V domains shown, acridinium ester label on the antibody, site not stated) VH: QSLEESGGDLVKPGASLTLTCTASGFSFSSSYYMCWVRQAPGKGLEWIACIYAGSSGSTYYASWAKGRFTISKTSSTTVTLQMTSLTAADTATYFCAREYSYDDYGDFWGFNLWGPGTLVTVSS VL: ALVMTQTPSSVSAAVGGTVTINCQASQNIYTNLAWYQQKPGQPPKLLIYGASNLESGVPSRFKGSGSGTEYTLTISDLECDDAATYYCQSSLYSRIADRANAFGGGTEVVVK			97600	900000	6120	1.48e+06	11100	2010	6220	44600
